Data: the supplement of paper PMC10567573

B1: PLAGL1 (parent)
chain: TKEKKHQCDHCERCFYTRKDVRRH

Variants of: B1
Assay: protein stability index of a GFP-peptide fusion (GPS, HEK-293T) (PSI 1-6); higher = more stable
Details: c terminus: a fixed tail appended
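Also: lentivirally expressed fusions sorted by FACS into six bins by GFP to DsRed ratio, PSI derived from sequencing read proportions per bin multiplied by bin number.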

Point of comparison: TKEKKQQCDHCERCFYTRKDVRRH, protein stability index 3.08. Against it:
- TKEKKHQCWHCERCFYTRKDVRRH — lower, 2.84
- TKEKKHQCKHCERCFYTRKDVRRH — higher, 3.24
- TKEKKHQCHHCERCFYTRKDVRRH — lower, 3.02
- TKEKKHQCTHCERCFYTRKDVRRH — lower, 2.92
- TKEKKHQCIHCERCFYTRKDVRRH — lower, 2.53
- TKEKKHQCYHCERCFYTRKDVRRH — lower, 2.46
- TKEKKHQCRHCERCFYTRKDVRRH — lower, 2.92
- TKEKKHQCLHCERCFYTRKDVRRH — lower, 2.98
- TKEKKHQCPHCERCFYTRKDVRRH — higher, 3.11
- TKEKKHQCCHCERCFYTRKDVRRH — higher, 3.14
- TKEKKHQCNHCERCFYTRKDVRRH — higher, 4.02
- TKEKKHQCSHCERCFYTRKDVRRH — higher, 3.14
- TKEKKHQCGHCERCFYTRKDVRRH — higher, 3.66
- TKEKKHQCVHCERCFYTRKDVRRH — lower, 2.47
- TKEKKHQCFHCERCFYTRKDVRRH — lower, 2.31
- TKEKKHQCQHCERCFYTRKDVRRH — lower, 3
- TKEKKHQCEHCERCFYTRKDVRRH — higher, 3.32
- TKEKKHQCMHCERCFYTRKDVRRH — higher, 3.5
- TKEKKHQCAHCERCFYTRKDVRRH — lower, 2.67
- TKKKKHQCDHCERCFYTRKDVRRH — higher, 3.5
- TKRKKHQCDHCERCFYTRKDVRRH — higher, 3.59
- TKMKKHQCDHCERCFYTRKDVRRH — higher, 3.53
- TKIKKHQCDHCERCFYTRKDVRRH — lower, 3.01
- TKPKKHQCDHCERCFYTRKDVRRH — higher, 3.63
- TKNKKHQCDHCERCFYTRKDVRRH — higher, 3.59
- TKCKKHQCDHCERCFYTRKDVRRH — higher, 4.51
- TKGKKHQCDHCERCFYTRKDVRRH — higher, 3.45
- TKVKKHQCDHCERCFYTRKDVRRH — higher, 3.28
- TKQKKHQCDHCERCFYTRKDVRRH — higher, 3.35
- TKHKKHQCDHCERCFYTRKDVRRH — higher, 3.55
- TKDKKHQCDHCERCFYTRKDVRRH — higher, 3.49
- TKTKKHQCDHCERCFYTRKDVRRH — higher, 3.32
- TKSKKHQCDHCERCFYTRKDVRRH — higher, 3.48
- TKWKKHQCDHCERCFYTRKDVRRH — lower, 2.73
- TKLKKHQCDHCERCFYTRKDVRRH — higher, 3.14
- TKAKKHQCDHCERCFYTRKDVRRH — higher, 3.31
- TKFKKHQCDHCERCFYTRKDVRRH — higher, 3.29
- TKYKKHQCDHCERCFYTRKDVRRH — higher, 3.12
- YKEKKHQCDHCERCFYTRKDVRRH — higher, 3.31
- FKEKKHQCDHCERCFYTRKDVRRH — higher, 3.1
- RKEKKHQCDHCERCFYTRKDVRRH — higher, 3.37
- KKEKKHQCDHCERCFYTRKDVRRH — higher, 3.59
- GKEKKHQCDHCERCFYTRKDVRRH — higher, 3.68
- MKEKKHQCDHCERCFYTRKDVRRH — higher, 3.39
- EKEKKHQCDHCERCFYTRKDVRRH — higher, 3.82
- HKEKKHQCDHCERCFYTRKDVRRH — higher, 3.12
- CKEKKHQCDHCERCFYTRKDVRRH — higher, 3.75
- IKEKKHQCDHCERCFYTRKDVRRH — higher, 3.57
- DKEKKHQCDHCERCFYTRKDVRRH — lower, 3.04
- NKEKKHQCDHCERCFYTRKDVRRH — higher, 3.38
- LKEKKHQCDHCERCFYTRKDVRRH — higher, 3.34
- SKEKKHQCDHCERCFYTRKDVRRH — higher, 3.46
- QKEKKHQCDHCERCFYTRKDVRRH — higher, 3.52
- VKEKKHQCDHCERCFYTRKDVRRH — higher, 3.5
- PKEKKHQCDHCERCFYTRKDVRRH — higher, 3.48
- AKEKKHQCDHCERCFYTRKDVRRH — higher, 3.1
- WKEKKHQCDHCERCFYTRKDVRRH — higher, 3.54
- TKEKKHRCDHCERCFYTRKDVRRH — higher, 3.33
- TKEKKHECDHCERCFYTRKDVRRH — higher, 3.31
- TKEKKHWCDHCERCFYTRKDVRRH — lower, 2.77
- TKEKKHACDHCERCFYTRKDVRRH — higher, 3.41
- TKEKKHSCDHCERCFYTRKDVRRH — higher, 3.25
- TKEKKHLCDHCERCFYTRKDVRRH — lower, 2.54
- TKEKKHNCDHCERCFYTRKDVRRH — higher, 3.21
- TKEKKHCCDHCERCFYTRKDVRRH — higher, 3.36
- TKEKKHYCDHCERCFYTRKDVRRH — lower, 2.81
- TKEKKHHCDHCERCFYTRKDVRRH — higher, 3.73
- TKEKKHKCDHCERCFYTRKDVRRH — higher, 3.8
- TKEKKHFCDHCERCFYTRKDVRRH — lower, 2.91
- TKEKKHGCDHCERCFYTRKDVRRH — lower, 2.89
- TKEKKHDCDHCERCFYTRKDVRRH — higher, 3.43
- TKEKKHTCDHCERCFYTRKDVRRH — lower, 2.74
- TKEKKHICDHCERCFYTRKDVRRH — higher, 3.32
- TKEKKHPCDHCERCFYTRKDVRRH — lower, 2.82
- TKEKKHVCDHCERCFYTRKDVRRH — higher, 3.23
- TKEKKHMCDHCERCFYTRKDVRRH — lower, 2.71
- TSEKKHQCDHCERCFYTRKDVRRH — higher, 3.39
- TQEKKHQCDHCERCFYTRKDVRRH — higher, 3.67
- TNEKKHQCDHCERCFYTRKDVRRH — higher, 3.21
- TGEKKHQCDHCERCFYTRKDVRRH — higher, 3.15
- TVEKKHQCDHCERCFYTRKDVRRH — higher, 3.3
- TMEKKHQCDHCERCFYTRKDVRRH — higher, 3.71
- TPEKKHQCDHCERCFYTRKDVRRH — higher, 3.1
- TYEKKHQCDHCERCFYTRKDVRRH — higher, 3.21
- TEEKKHQCDHCERCFYTRKDVRRH — higher, 3.65
- TLEKKHQCDHCERCFYTRKDVRRH — lower, 2.75
- THEKKHQCDHCERCFYTRKDVRRH — higher, 3.55
- TTEKKHQCDHCERCFYTRKDVRRH — higher, 3.67
- TCEKKHQCDHCERCFYTRKDVRRH — higher, 3.25
- TDEKKHQCDHCERCFYTRKDVRRH — higher, 4.04
- TREKKHQCDHCERCFYTRKDVRRH — higher, 3.77
- TFEKKHQCDHCERCFYTRKDVRRH — lower, 3.02
- TWEKKHQCDHCERCFYTRKDVRRH — higher, 3.16
- TAEKKHQCDHCERCFYTRKDVRRH — higher, 3.58
- TIEKKHQCDHCERCFYTRKDVRRH — the same, 3.08
- TKEKKHQYDHCERCFYTRKDVRRH — lower, 2.78
- TKEKKHQGDHCERCFYTRKDVRRH — lower, 3.02
- TKEKKHQHDHCERCFYTRKDVRRH — higher, 3.25
- TKEKKHQKDHCERCFYTRKDVRRH — higher, 3.43
- TKEKKHQADHCERCFYTRKDVRRH — higher, 3.53
- TKEKKHQRDHCERCFYTRKDVRRH — higher, 3.42
- TKEKKHQQDHCERCFYTRKDVRRH — higher, 3.53
- TKEKKHQFDHCERCFYTRKDVRRH — lower, 2.6
- TKEKKHQNDHCERCFYTRKDVRRH — higher, 3.29
- TKEKKHQIDHCERCFYTRKDVRRH — higher, 3.1
- TKEKKHQDDHCERCFYTRKDVRRH — higher, 3.61
- TKEKKHQEDHCERCFYTRKDVRRH — higher, 3.84
- TKEKKHQWDHCERCFYTRKDVRRH — lower, 2.75
- TKEKKHQPDHCERCFYTRKDVRRH — higher, 3.17
- TKEKKHQMDHCERCFYTRKDVRRH — lower, 2.98
- TKEKKHQVDHCERCFYTRKDVRRH — higher, 3.12
- TKEKKHQTDHCERCFYTRKDVRRH — higher, 3.24
- TKEKKHQLDHCERCFYTRKDVRRH — higher, 3.56
- TKEKKHQSDHCERCFYTRKDVRRH — higher, 3.48
- TKEKKHQCDACERCFYTRKDVRRH — higher, 3.33
- TKEKKHQCDFCERCFYTRKDVRRH — lower, 2.36
- TKEKKHQCDMCERCFYTRKDVRRH — higher, 3.33
- TKEKKHQCDNCERCFYTRKDVRRH — higher, 3.6
- TKEKKHQCDTCERCFYTRKDVRRH — higher, 3.37
- TKEKKHQCDGCERCFYTRKDVRRH — higher, 4.13
- TKEKKHQCDSCERCFYTRKDVRRH — higher, 3.68
- TKEKKHQCDECERCFYTRKDVRRH — higher, 3.37
- TKEKKHQCDCCERCFYTRKDVRRH — higher, 3.33
- TKEKKHQCDLCERCFYTRKDVRRH — lower, 2.55
- TKEKKHQCDDCERCFYTRKDVRRH — higher, 3.79
- TKEKKHQCDKCERCFYTRKDVRRH — higher, 3.91
- TKEKKHQCDICERCFYTRKDVRRH — lower, 2.71
- TKEKKHQCDQCERCFYTRKDVRRH — higher, 3.47
- TKEKKHQCDPCERCFYTRKDVRRH — higher, 3.4
- TKEKKHQCDRCERCFYTRKDVRRH — higher, 3.41
- TKEKKHQCDVCERCFYTRKDVRRH — higher, 3.37
- TKETKHQCDHCERCFYTRKDVRRH — higher, 3.27
- TKEVKHQCDHCERCFYTRKDVRRH — higher, 3.24
- TKEFKHQCDHCERCFYTRKDVRRH — higher, 3.21
- TKECKHQCDHCERCFYTRKDVRRH — higher, 3.87
- TKEWKHQCDHCERCFYTRKDVRRH — lower, 2.95
- TKEPKHQCDHCERCFYTRKDVRRH — higher, 3.33
- TKEQKHQCDHCERCFYTRKDVRRH — higher, 3.4
- TKEHKHQCDHCERCFYTRKDVRRH — higher, 3.42
- TKEAKHQCDHCERCFYTRKDVRRH — higher, 3.32
- TKESKHQCDHCERCFYTRKDVRRH — lower, 2.93
- TKERKHQCDHCERCFYTRKDVRRH — higher, 3.29
- TKEGKHQCDHCERCFYTRKDVRRH — higher, 3.49
- TKEEKHQCDHCERCFYTRKDVRRH — higher, 4.01
- TKENKHQCDHCERCFYTRKDVRRH — the same, 3.08
- TKEDKHQCDHCERCFYTRKDVRRH — higher, 3.84
- TKELKHQCDHCERCFYTRKDVRRH — lower, 2.9
- TKEMKHQCDHCERCFYTRKDVRRH — higher, 3.27
- TKEIKHQCDHCERCFYTRKDVRRH — higher, 3.57
- TKEYKHQCDHCERCFYTRKDVRRH — lower, 3.03
- TKEKKCQCDHCERCFYTRKDVRRH — higher, 3.7
- TKEKKAQCDHCERCFYTRKDVRRH — lower, 2.39
- TKEKKGQCDHCERCFYTRKDVRRH — lower, 2.88
- TKEKKMQCDHCERCFYTRKDVRRH — lower, 2.7
- TKEKKLQCDHCERCFYTRKDVRRH — lower, 2.5
- TKEKKKQCDHCERCFYTRKDVRRH — higher, 3.19
- TKEKKYQCDHCERCFYTRKDVRRH — higher, 3.43
- TKEKKRQCDHCERCFYTRKDVRRH — lower, 2.95
- TKEKKPQCDHCERCFYTRKDVRRH — lower, 2.94
- TKEKKIQCDHCERCFYTRKDVRRH — lower, 2.94
- TKEKKFQCDHCERCFYTRKDVRRH — lower, 3.01
- TKEKKNQCDHCERCFYTRKDVRRH — higher, 3.33
- TKEKKEQCDHCERCFYTRKDVRRH — higher, 3.55
- TKEKKTQCDHCERCFYTRKDVRRH — lower, 2.86
- TKEKKDQCDHCERCFYTRKDVRRH — lower, 2.91
- TKEKKSQCDHCERCFYTRKDVRRH — lower, 2.88
- TKEKKVQCDHCERCFYTRKDVRRH — lower, 2.67
- TKEKKWQCDHCERCFYTRKDVRRH — lower, 2.51
- TKEKDHQCDHCERCFYTRKDVRRH — higher, 3.53
- TKEKEHQCDHCERCFYTRKDVRRH — higher, 3.67
- TKEKGHQCDHCERCFYTRKDVRRH — lower, 3.04
- TKEKMHQCDHCERCFYTRKDVRRH — higher, 3.81
- TKEKNHQCDHCERCFYTRKDVRRH — lower, 3.03
- TKEKIHQCDHCERCFYTRKDVRRH — higher, 3.13
- TKEKTHQCDHCERCFYTRKDVRRH — higher, 3.22
- TKEKVHQCDHCERCFYTRKDVRRH — higher, 3.63
- TKEKLHQCDHCERCFYTRKDVRRH — higher, 3.67
- TKEKRHQCDHCERCFYTRKDVRRH — higher, 3.75
- TKEKWHQCDHCERCFYTRKDVRRH — lower, 3.06
- TKEKCHQCDHCERCFYTRKDVRRH — lower, 2.59
- TKEKQHQCDHCERCFYTRKDVRRH — higher, 3.67
- TKEKAHQCDHCERCFYTRKDVRRH — higher, 3.78
- TKEKHHQCDHCERCFYTRKDVRRH — higher, 3.82
- TKEKPHQCDHCERCFYTRKDVRRH — higher, 3.67
- TKEKSHQCDHCERCFYTRKDVRRH — higher, 3.46
- TKEKFHQCDHCERCFYTRKDVRRH — higher, 3.22
- TKEKYHQCDHCERCFYTRKDVRRH — higher, 3.19
